From patent US20260055182A1 (CIS BIOPHARMA, published 2026)
Numbering of substitutions follows the chain as printed. In names and notes the source's numbering stands.

B1: CE7-variant4-AG (antibody)
heavy: QVQLVQSGAEVKKPGASVKVSCKASGYTFTGYWMHWVRQAPGQGLEWIGEINPSNGRTNYNERFKSRVTLTVDKSISTAYMELSRLRSDDTAVYFCARDYYGTSYNFDYWGQGTLVTVSSASTKGPSVFPLAPSSKSTSGGTAALGCLVKDYFPEPVTVSWNSGALTSGVHTFPAVLQSSGLYSLSSVVTVPSSSLGTQTYICNVNHKPSNTKVDKKVEPKSCDKTHTCPPCPAPEAAGGPSVFLFPPKPKDTLMISRTPEVTCVVVDVSHEDPEVKFNWYVDGVEVHNAKTKPREEQYASTYRVVSVLTVLHQDWLNGKEYKCKVSNKALPASIEKTISKAKGQPREPQVYTLPPSREEMTKNQVSLTCLVKGFYPSDIAVEWESNGQPENNYKTTPPVLDSDGSFFLYSKLTVDKSRWQQGNVFSCSVMHEALHNHYTQKSLSLSPGK
light: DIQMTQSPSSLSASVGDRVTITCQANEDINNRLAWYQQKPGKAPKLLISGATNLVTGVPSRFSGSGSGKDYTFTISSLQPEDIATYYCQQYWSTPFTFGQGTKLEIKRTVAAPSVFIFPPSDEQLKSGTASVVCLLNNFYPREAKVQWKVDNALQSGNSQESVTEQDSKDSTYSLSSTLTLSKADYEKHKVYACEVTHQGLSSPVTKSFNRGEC
notes: CE7-1-2-VHA (L234A L235A P331S N297A) + CE7-1-33-VLB, aglycosylated human IgG1 kappa; also called CE7-varant4-AG
B2: CE7-variant18-AG (antibody)
heavy: QVQLQQWGAGLLKPSETLSLTCAAYGYTFTGYWMHWIRQPPGKGLEWIGEINPSNGRTNYNERLKSRVTLSVDKSKNQASLKLSSVTAADTAVYFCARDYYGTSYNFDYWGQGTLVTVSSASTKGPSVFPLAPSSKSTSGGTAALGCLVKDYFPEPVTVSWNSGALTSGVHTFPAVLQSSGLYSLSSVVTVPSSSLGTQTYICNVNHKPSNTKVDKKVEPKSCDKTHTCPPCPAPEAAGGPSVFLFPPKPKDTLMISRTPEVTCVVVDVSHEDPEVKFNWYVDGVEVHNAKTKPREEQYASTYRVVSVLTVLHQDWLNGKEYKCKVSNKALPASIEKTISKAKGQPREPQVYTLPPSREEMTKNQVSLTCLVKGFYPSDIAVEWESNGQPENNYKTTPPVLDSDGSFFLYSKLTVDKSRWQQGNVFSCSVMHEALHNHYTQKSLSLSPGK
light: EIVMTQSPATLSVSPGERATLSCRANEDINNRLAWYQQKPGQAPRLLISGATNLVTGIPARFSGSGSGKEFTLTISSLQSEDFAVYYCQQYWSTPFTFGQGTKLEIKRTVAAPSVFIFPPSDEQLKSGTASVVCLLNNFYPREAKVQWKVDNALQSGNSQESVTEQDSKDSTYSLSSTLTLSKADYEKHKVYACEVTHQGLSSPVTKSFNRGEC
notes: CE7-4-34-VHA (L234A L235A P331S N297A) + CE7-3-15-VLB, aglycosylated human IgG1 kappa; N297 of IgG1 numbering is residue 319 of the entry (QYNST); also called CE7-varant18-AG
B3: CE7-variant21 (antibody, V domains shown)
VH: QVQLVQSGAEVKKPGASVKVSCKASGYTFTGYWMHWVRQAPGQGLEWIGEINPSNGRTNYNEKFQGRVTLTVDKSISTAYMELSRLRSDDTAVYYCARDYYGTSYNFDYWGQGTLVTVSS
VL: DIQMTQSPSSLSASVGDRVTITCKANEDINNRLAWYQQKPGKAPKLLISGATNLVTGVPSRFSGSGSGKDYTLTISSLQPEDFATYYCQQYWSTPFTFGQGTKLEIKR
notes: CE7-1-2-VHC + CE7-1-NL1-VLA; human IgG1 kappa, L234A L235A P331S N297A (aglycosylated); also called humanized variant 21
B4: CE7-variant22 (antibody, V domains shown)
VH: B3 VH
VL: B3 VL with K24R
notes: CE7-1-2-VHC + CE7-1-NL1-VLB; human IgG1 kappa, L234A L235A P331S N297A (aglycosylated); also called humanized variant 22
B5: CE7-variant23 (antibody, V domains shown)
VH: B3 VH
VL: B3 VL with K24R, T52S, T56S
notes: CE7-1-2-VHC + CE7-1-NL1-VLC; human IgG1 kappa, L234A L235A P331S N297A (aglycosylated); also called humanized variant 23
B6: CE7-variant24 (antibody, V domains shown)
VH: B3 VH
VL: B3 VL with K24R, N26S, E27Q, D28G, T52S, T56S
notes: CE7-1-2-VHC + CE7-1-NL1-VLD; human IgG1 kappa, L234A L235A P331S N297A (aglycosylated); also called humanized variant 24
B7: CE7-variant25 (antibody, V domains shown)
VH: B3 VH with I48M
VL: B3 VL
notes: CE7-1-2-VHD + CE7-1-NL1-VLA; human IgG1 kappa, L234A L235A P331S N297A (aglycosylated); also called humanized variant 25
B8: CE7-variant5 (antibody, V domains shown)
VH: B3 VH with K63R, Q65K, G66S, Y95F
VL: EIVMTQSPATLSVSPGERATLSCKANEDINNRLAWYQQKPGQAPRLLISGATNLVTGIPARFSGSGSGKEYTLTISSLQSEDFAVYYCQQYWSTPFTFGQGTKLEIKR
notes: Human IgG1 kappa, L234A L235A P331S; also called CE7-12-VHA-315-VLA; humanized variant 5
B9: CE7-variant6 (antibody, V domains shown)
VH: B3 VH with K63R, Q65K, G66S, Y95F
VL: B8 VL with K24R, Y71F
notes: Human IgG1 kappa, L234A L235A P331S; also called CE7-12-VHA-315-VLB; humanized variant 6
B10: CE7-variant11 (antibody, V domains shown)
VH: B3 VH with K63R
VL: B8 VL
notes: Human IgG1 kappa, L234A L235A P331S; also called CE7-12-VHB-315-VLA; humanized variant 11
B11: CE7-variant12 (antibody, V domains shown)
VH: B3 VH with K63R
VL: B8 VL with K24R, Y71F
notes: Human IgG1 kappa, L234A L235A P331S; also called CE7-12-VHB-315-VLB; humanized variant 12
B12: CE7-variant13 (antibody, V domains shown)
VH: QVQLQQWGAGLLKPSETLSLTCAAYGYTFTGYWMHWIRQPPGKGLEWIGEINPSNGRTNYNERLKSRVTLSVDKSKNQASLKLSSVTAADTAVYFCARDYYGTSYNFDYWGQGTLVTVSS
VL: B3 VL
notes: Human IgG1 kappa, L234A L235A P331S; also called CE7-434-VHA-1NL1-VLA; humanized variant 13
B13: CE7-variant14 (antibody, V domains shown)
VH: B12 VH
VL: B3 VL with K24R
notes: Human IgG1 kappa, L234A L235A P331S; also called CE7-434-VHA-1NL1-VLB; humanized variant 14
B14: CE7-variant15 (antibody, V domains shown)
VH: B12 VH
VL: B3 VL with F83I
notes: Human IgG1 kappa, L234A L235A P331S; also called CE7-434-VHA-133-VLA; humanized variant 15
B15: CE7-variant16 (antibody, V domains shown)
VH: B12 VH
VL: B3 VL with K24Q, L73F, F83I
notes: Human IgG1 kappa, L234A L235A P331S; also called CE7-434-VHA-133-VLB; humanized variant 16
B16: CE7-variant18 (antibody)
heavy: B2 heavy with A300N
light: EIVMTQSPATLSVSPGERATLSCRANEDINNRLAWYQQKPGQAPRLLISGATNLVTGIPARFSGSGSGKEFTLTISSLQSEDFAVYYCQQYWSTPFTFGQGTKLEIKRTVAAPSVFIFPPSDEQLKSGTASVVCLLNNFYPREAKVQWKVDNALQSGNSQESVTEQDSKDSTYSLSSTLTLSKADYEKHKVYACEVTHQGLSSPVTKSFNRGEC
notes: Human IgG1 kappa, L234A L235A P331S; also called CE7-434-VHA-315-VLB; humanized variant 18
B17: CE7-variant17 (antibody, V domains shown)
VH: B12 VH
VL: B8 VL
notes: Human IgG1 kappa, L234A L235A P331S; also called CE7-434-VHA-315-VLA; humanized variant 17
B18: LV1 (antibody, V domains shown)
VH: QVQLQQPGAELVKPGASVKLSCKASGYTFTGYYMHWVKQRPGHGLEWIGEINPSNGRTNYNERFKSKATLTVDKSSTTAFMQLSGLTSEDSAVYFCARDYYGTSYNFDYWGQGTTLTVSS
VL: DIQMTQSSSSFSVSLGDRVTITCKANEDINNRLAWYQQTPGNSPRLLISGATNLVTGVPSRFSGSGSGKDYTLTITSLQAEDFATYYCQQYWSTPFTFGSGTELEIKR
notes: CE7-VH-chimeric-WH33Y + CE7-VL-chimeric; chimeric CE7, human IgG1 kappa, L234A L235A P331S N297A; also called liability variant 1
B19: LV2 (antibody, V domains shown)
VH: B18 VH with Y33F
VL: B18 VL
notes: CE7-VH-chimeric-WH33F + CE7-VL-chimeric; chimeric CE7, human IgG1 kappa, L234A L235A P331S N297A; also called liability variant 2
B20: LV3 (antibody, V domains shown)
VH: B18 VH with Y33L
VL: B18 VL
notes: CE7-VH-chimeric-WH33L + CE7-VL-chimeric; chimeric CE7, human IgG1 kappa, L234A L235A P331S N297A; also called liability variant 3
B21: LV4 (antibody, V domains shown)
VH: B18 VH with Y33W, G56A
VL: B18 VL
notes: CE7-VH-chimeric-GH55A + CE7-VL-chimeric; chimeric CE7, human IgG1 kappa, L234A L235A P331S N297A; also called liability variant 4
B22: LV5 (antibody, V domains shown)
VH: B18 VH with Y33W
VL: B18 VL with N31L
notes: CE7-VH-chimeric + CE7-VL-chimeric-NL31L; chimeric CE7, human IgG1 kappa, L234A L235A P331S N297A; also called liability variant 5
B23: LV6 (antibody, V domains shown)
VH: B18 VH with Y33W
VL: B18 VL with N31A
notes: CE7-VH-chimeric + CE7-VL-chimeric-NL31A; chimeric CE7, human IgG1 kappa, L234A L235A P331S N297A; also called liability variant 6
B24: LV7 (antibody, V domains shown)
VH: B18 VH with Y33W
VL: B18 VL with W92Y
notes: CE7-VH-chimeric + CE7-VL-chimeric-WL92Y; chimeric CE7, human IgG1 kappa, L234A L235A P331S N297A; also called liability variant 7
B25: LV8 (antibody, V domains shown)
VH: B18 VH with Y33W
VL: B18 VL with W92F
notes: CE7-VH-chimeric + CE7-VL-chimeric-WL92F; chimeric CE7, human IgG1 kappa, L234A L235A P331S N297A; also called liability variant 8
B26: huCE7 variant LV38 (antibody, human IgG1, kappa, L234A L235A, N297A)
heavy: B1 heavy with W33F, G56A, K65Q, S66G, F95Y, L312D
light: DIQMTQSPSSLSASVGDRVTITCKANEDINARLAWYQQKPGKAPKLLISGATNLVTGVPSRFSGSGSGKDYTLTISSLQPEDFATYYCQQYYSTPFTFGQGTKLEIKRTVAAPSVFIFPPSDEQLKSGTASVVCLLNNFYPREAKVQWKVDNALQSGNSQESVTEQDSKDSTYSLSSTLTLSKADYEKHKVYACEVTHQGLSSPVTKSFNRGEC
notes: Variant 7AG with HC WH33F, GH55A, LH309D and LC NL31A, WL92Y; also called huCE7-variant38
B27: huCE7 variant LV42 (antibody, human IgG1, kappa, L234A L235A, N297A)
heavy: B1 heavy with K65Q, S66G, F95Y, T310P
light: B26 light with A31N, Y92W
notes: Variant 7AG with HC TH307P; also called huCE7-variant42

What follows are binders tested against T1, L1-CAM recombinant protein (His Tag), human (human, UniProt P32004 20-1120) (assay: SPR (Biacore 8K); L1-CAM immobilised on CM5 chip, antibody as analyte).
T1 construct: Bought protein; also called CD171; human L1-CAM; not shown: His tag
T1 sequence (P32004 20-1120 limits assumed): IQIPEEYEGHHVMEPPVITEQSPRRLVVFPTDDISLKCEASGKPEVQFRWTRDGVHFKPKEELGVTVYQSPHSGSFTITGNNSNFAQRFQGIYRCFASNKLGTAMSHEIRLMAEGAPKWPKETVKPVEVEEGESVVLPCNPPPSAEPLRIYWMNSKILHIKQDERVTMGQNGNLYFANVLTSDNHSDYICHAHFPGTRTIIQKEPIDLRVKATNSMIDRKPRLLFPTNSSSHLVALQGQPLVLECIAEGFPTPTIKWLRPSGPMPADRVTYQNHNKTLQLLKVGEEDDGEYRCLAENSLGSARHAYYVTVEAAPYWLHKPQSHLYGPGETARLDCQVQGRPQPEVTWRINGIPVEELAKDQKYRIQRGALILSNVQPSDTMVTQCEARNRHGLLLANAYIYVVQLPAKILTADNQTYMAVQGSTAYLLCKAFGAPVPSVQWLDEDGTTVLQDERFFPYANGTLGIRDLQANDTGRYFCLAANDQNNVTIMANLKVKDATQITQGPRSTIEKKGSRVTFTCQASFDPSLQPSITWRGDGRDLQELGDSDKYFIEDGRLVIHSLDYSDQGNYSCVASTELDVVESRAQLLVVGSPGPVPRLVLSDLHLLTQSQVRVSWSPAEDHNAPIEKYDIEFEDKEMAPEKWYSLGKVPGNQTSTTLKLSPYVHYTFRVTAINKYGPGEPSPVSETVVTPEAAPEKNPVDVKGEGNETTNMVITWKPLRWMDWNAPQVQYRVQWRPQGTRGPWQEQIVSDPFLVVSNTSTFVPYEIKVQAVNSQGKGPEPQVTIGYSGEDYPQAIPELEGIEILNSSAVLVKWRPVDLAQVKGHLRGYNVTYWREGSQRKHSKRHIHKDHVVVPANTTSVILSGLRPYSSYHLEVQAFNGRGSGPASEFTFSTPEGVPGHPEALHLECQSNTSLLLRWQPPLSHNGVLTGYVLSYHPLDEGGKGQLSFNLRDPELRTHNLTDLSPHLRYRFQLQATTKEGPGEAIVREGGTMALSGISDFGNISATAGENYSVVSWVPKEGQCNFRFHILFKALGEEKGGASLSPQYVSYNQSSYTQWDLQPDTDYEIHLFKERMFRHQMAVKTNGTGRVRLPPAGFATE

| Binder | Kd [pM] | koff [s⁻¹] | kon [M⁻¹ s⁻¹] |
| --- | --- | --- | --- |
| B1 | 0.664 | 8.18e-07 | 1.23e+06 |
| B2 | 1.24 | 1.35e-06 | 1.09e+06 |

What follows are binders tested against T1, L1-CAM recombinant protein (His Tag), … (assay: ELISA, human L1-CAM coated at 2 µg/ml).

| Binder | EC50 [µg/mL] |
| --- | --- |
| B3 | 0.0299 |
| B4 | 0.024 |
| B5 | 0.037 |
| B6 | 0.0396 |
| B7 | 0.0272 |
| B8 | 0.0282 |
| B9 | 0.0255 |
| B10 | 0.0148 |
| B11 | 0.0126 |
| B12 | 0.05 |
| B13 | 0.0157 |
| B14 | 0.0112 |
| B15 | 0.0132 |
| B16 | 0.00968 |
| B17 | 0.0108 |
| B18 | 0.0362 |
| B19 | 0.0459 |
| B20 | 0.0328 |
| B21 | 0.0394 |
| B22 | 0.0318 |
| B23 | 0.0268 |
| B24 | 0.0246 |
| B25 | 0.0335 |

Each binder was assayed against T1, L1-CAM recombinant protein (His Tag), … (assay: SPR (Biacore 8K) as in Example 6, new batch of L1-CAM on the chip).
Experimental: In the SPR experiment, antigen is immobilized on sensor chip and solutions containing antibody at various concentrations are flown over the antigen. real time measurement of kinetics parameters is performed, including their on/off rates (ka and kd). Based thereon, binding affinity constant KD is determined.

| Binder | Kd [pM] | koff [s⁻¹] | kon [M⁻¹ s⁻¹] |
| --- | --- | --- | --- |
| B26 | 268 | 3.23e-05 | 121000 |
| B27 |  |  | 1.92e+06 |
